{
  "source": "patent US20240115706A1",
  "about": "(LG CHEM, published 2024)",
  "key": {"[1]": {"biological_target": "T1, human GUCY2C-rCD4 fusion protein (Homo sapiens (human); Rattus norvegicus, biotinylated (site not given))", "T1 construct": "GUCY2C conjugated/fused with CD4; also called Hu-GUCY2C-rCD4; human GUCY2C recombinant antigen", "assay": "SPR (Sierra SPR-32), scFv on protein G, antigen 800-12.5 nM, 25 C", "protocol": "Furthermore, the affinity to the GUCY2C antigen of the 18 kinds of scFvs produced in Example 1 was measured by SPR (Surface plasmon resonance) analysis.\nSPR assay was performed with association time 2 min and dissociation time 10 min under the condition of 25 degrees of Celsius using MASS2 (Sierra SPR-32; Bruker). The data were analyzed with Software R3."}, "[2]": {"biological_target": "T1, human GUCY2C-rCD4 fusion protein", "assay": "ranking ELISA (DELFIA), 50 nM scFv on anti-FLAG, biotinylated antigen, streptavidin-Eu", "protocol": "(§1) More specifically, after coating an anti-FLAG antibody in a MaxiSorb plate and binding by adding scFvs obtained previously, the remaining scFvs were removed by a washing process. Here, a biotinylated human-GUCY2C-rCD4 protein was incubated and combined, and then the affinity to the antigen was measured by reading signals by DELFIA enhancement with color development through streptavidin-Europlum."}, "[3]": {"biological_target": "T1, human GUCY2C-rCD4 fusion protein", "assay": "ranking ELISA (DELFIA), 5 nM scFv on anti-FLAG, biotinylated antigen, streptavidin-Eu", "protocol": "as §1"}, "[4]": {"biological_target": "T1, human GUCY2C-rCD4 fusion protein", "assay": "ELISA (DELFIA), antigen on streptavidin plate, scFv culture solution, Eu-anti-tag Ab", "protocol": "(§2) More specifically, GUCY2C-rCD4 fusion protein, in which the prepared human GUCY2C (SEQ ID NO: 112), monkey GUCY2C (SEQ ID NO: 114), and mouse GUCY2C (SEQ ID NO: 113) were fused, respectively, was bound to a place coated with streptavidin in a Nunc Maxisorp™96 well plate. After removing all the synthetic proteins not combined with washing buffer, the anti-GUCY2C scFV obtained in the culture solution was incubated in each well. After that, the affinity was measured by reading signals DELFIA enhanced using Eu-anti-tag Ab."}, "[5]": {"biological_target": "T2, monkey GUCY2C-rCD4 fusion protein (Macaca fascicularis (crab-eating …, limits assumed))", "T2 construct": "Prepared by the same method as the human antigen; also called Cy-GUCY2C-rCD4; monkey GUCY2C recombinant antigen", "T2 chain": "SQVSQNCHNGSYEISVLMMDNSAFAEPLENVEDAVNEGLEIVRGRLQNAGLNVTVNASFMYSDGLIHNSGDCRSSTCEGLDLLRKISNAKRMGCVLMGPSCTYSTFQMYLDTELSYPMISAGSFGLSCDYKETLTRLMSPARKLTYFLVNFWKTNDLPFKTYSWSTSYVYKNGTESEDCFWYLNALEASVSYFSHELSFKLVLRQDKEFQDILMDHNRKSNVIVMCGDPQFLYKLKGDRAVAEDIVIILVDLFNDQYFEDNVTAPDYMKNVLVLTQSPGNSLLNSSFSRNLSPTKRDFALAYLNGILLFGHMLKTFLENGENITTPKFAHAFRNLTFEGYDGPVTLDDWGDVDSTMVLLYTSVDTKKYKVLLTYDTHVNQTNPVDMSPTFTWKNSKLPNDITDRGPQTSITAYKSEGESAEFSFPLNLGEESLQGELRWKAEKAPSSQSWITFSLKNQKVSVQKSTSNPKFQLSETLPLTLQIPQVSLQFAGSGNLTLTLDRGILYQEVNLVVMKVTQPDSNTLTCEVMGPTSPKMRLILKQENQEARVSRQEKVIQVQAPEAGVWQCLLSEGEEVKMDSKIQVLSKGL", "assay": "ELISA (DELFIA), antigen on streptavidin plate, scFv culture solution, Eu-anti-tag Ab", "protocol": "as §2"}, "[6]": {"biological_target": "T3, mouse GUCY2C-rCD4 fusion protein (Mus musculus (house mouse); Rattus …, limits assumed)", "T3 construct": "Prepared by the same method as the human antigen; also called Mu-GUCY2C-rCD4; murine GUCY2C recombinant antigen", "T3 chain": "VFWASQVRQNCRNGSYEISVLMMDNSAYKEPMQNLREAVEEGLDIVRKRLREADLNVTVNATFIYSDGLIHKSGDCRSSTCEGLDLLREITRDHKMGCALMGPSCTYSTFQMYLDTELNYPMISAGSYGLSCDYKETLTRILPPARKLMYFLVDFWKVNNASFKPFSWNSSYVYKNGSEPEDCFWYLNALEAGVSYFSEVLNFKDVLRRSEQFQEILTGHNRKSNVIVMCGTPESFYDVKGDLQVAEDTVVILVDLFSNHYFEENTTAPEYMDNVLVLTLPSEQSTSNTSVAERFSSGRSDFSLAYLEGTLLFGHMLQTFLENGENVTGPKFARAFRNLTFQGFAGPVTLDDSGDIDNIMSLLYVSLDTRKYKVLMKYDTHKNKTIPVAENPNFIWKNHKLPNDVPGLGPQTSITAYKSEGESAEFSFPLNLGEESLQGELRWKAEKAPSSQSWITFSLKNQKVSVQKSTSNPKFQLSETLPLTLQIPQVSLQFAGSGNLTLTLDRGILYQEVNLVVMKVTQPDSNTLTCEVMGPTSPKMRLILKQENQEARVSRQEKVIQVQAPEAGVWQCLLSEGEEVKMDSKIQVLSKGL", "assay": "ELISA (DELFIA), antigen on streptavidin plate, scFv culture solution, Eu-anti-tag Ab", "protocol": "as §2"}},
  "data": [
    {"binder": "scFv A07 (scFv, also called 2427_01_C02) scFv: QVQLQESGPGLVKPSETLSLTCTVSGGSISSYYWSWIRQPPGKGLEWIGSIYYSGSTNYNPSLKSRVTISRDKSKNQLFLKLNSMTAADTAVYYCARDVWGSGQSFDSWGQGTLVTVSSGGGGSGGGGSGGGASNFMLTQPHSVSESPGKTVTISCTRSSGSIASNYVQWYQQRLGSSPTTVIYEHSRRPSGVPDRFSASIDSSSNSASLTISGLKTEDEADYYCQSYDVSNRVFGGGTKLTVL", "values": [
      {"measurement": "Kd", "setting": "[1]", "value": 3.73, "unit": "µM"},
      {"measurement": "Affinity Ranking ELISA (50 nM) signal", "setting": "[2]", "value": 27700},
      {"measurement": "Affinity Ranking ELISA (5 nM) signal", "setting": "[3]", "value": 4740},
      {"measurement": "Binding ELISA signal", "setting": "[4]", "value": 79000},
      {"measurement": "Binding ELISA signal", "setting": "[5]", "value": 51100},
      {"measurement": "Binding ELISA signal", "setting": "[6]", "value": 17100}
    ]}
  ]
}
